In PMC7845591:

Molecular target: endothelial protein C receptor (EPCR), residues 16 to 210, biotinylated on the BAP tag (human) (UniProt Q9UNN8)
Assay: SPR; Biacore T200; biotinylated EPCR captured on a CAP chip (150 RU); twofold dilution series of CIDRα domain or synthetic binder injected 240 s, dissociation 300 s; 20 mM HEPES pH 7.5, 150 mM NaCl, 0.005% Tween 20, 25°C; global fit to a 1:1 model

Sequence of UniProt Q9UNN8 (Q9UNN8 16-210): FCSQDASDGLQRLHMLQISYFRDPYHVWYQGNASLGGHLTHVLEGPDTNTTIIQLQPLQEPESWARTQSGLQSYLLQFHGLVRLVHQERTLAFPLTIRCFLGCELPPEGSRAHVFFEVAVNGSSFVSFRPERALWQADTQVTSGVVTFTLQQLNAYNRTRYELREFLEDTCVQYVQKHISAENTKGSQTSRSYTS

Substance: HB3var03 CIDRα1.4 domain D576A K642A double mutant (domain or fragment)
- Kd: 220 nM
